{"source": "patent US20140072613A1", "about": "“Compositions and Methods for Treating Cutaneous Scarring” (priority 2012, published 2014)", "test_in_all_cases": "biochemical", "type_in_all_cases": "biochemical", "key": {"266 human kinases [1]": {"target": "T1, 266 human kinases (Homo sapiens, UniProt O00418)", "T1 sequence (O00418 whole entry, looked up)": "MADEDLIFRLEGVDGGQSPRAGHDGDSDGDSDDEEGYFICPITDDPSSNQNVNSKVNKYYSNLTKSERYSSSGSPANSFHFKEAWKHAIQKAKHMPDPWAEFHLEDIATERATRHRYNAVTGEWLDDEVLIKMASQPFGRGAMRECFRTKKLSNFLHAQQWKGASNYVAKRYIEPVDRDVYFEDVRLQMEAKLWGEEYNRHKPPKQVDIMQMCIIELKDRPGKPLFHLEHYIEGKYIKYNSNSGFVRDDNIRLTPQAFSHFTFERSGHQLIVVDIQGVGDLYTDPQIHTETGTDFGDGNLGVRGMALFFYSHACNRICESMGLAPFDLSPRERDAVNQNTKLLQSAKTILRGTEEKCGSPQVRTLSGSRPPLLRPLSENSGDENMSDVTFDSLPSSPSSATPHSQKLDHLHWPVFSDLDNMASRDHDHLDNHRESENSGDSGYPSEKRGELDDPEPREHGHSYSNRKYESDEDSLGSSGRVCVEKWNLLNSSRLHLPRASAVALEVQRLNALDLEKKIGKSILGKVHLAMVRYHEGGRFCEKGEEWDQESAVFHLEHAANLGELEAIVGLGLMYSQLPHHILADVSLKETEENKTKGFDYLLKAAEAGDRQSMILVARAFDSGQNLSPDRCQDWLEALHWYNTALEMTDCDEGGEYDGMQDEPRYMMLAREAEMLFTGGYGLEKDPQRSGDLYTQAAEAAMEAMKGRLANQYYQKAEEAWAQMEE", "settings": "eEF-2K(h); 100 μM", "how_it_was_run": "(§1)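 Radiometric filter-binding format: a positively charged substrate takes up radiolabelled phosphate from ATP unless the kinase is inhibited, then is captured on a negatively charged filter membrane. Counts from scintillation are expressed relative to a 100% activity control.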"}, "266 human kinases [2]": {"target": "266 human kinases (Homo sapiens, UniProt Q13464)", "sequence (Q13464 whole entry)": "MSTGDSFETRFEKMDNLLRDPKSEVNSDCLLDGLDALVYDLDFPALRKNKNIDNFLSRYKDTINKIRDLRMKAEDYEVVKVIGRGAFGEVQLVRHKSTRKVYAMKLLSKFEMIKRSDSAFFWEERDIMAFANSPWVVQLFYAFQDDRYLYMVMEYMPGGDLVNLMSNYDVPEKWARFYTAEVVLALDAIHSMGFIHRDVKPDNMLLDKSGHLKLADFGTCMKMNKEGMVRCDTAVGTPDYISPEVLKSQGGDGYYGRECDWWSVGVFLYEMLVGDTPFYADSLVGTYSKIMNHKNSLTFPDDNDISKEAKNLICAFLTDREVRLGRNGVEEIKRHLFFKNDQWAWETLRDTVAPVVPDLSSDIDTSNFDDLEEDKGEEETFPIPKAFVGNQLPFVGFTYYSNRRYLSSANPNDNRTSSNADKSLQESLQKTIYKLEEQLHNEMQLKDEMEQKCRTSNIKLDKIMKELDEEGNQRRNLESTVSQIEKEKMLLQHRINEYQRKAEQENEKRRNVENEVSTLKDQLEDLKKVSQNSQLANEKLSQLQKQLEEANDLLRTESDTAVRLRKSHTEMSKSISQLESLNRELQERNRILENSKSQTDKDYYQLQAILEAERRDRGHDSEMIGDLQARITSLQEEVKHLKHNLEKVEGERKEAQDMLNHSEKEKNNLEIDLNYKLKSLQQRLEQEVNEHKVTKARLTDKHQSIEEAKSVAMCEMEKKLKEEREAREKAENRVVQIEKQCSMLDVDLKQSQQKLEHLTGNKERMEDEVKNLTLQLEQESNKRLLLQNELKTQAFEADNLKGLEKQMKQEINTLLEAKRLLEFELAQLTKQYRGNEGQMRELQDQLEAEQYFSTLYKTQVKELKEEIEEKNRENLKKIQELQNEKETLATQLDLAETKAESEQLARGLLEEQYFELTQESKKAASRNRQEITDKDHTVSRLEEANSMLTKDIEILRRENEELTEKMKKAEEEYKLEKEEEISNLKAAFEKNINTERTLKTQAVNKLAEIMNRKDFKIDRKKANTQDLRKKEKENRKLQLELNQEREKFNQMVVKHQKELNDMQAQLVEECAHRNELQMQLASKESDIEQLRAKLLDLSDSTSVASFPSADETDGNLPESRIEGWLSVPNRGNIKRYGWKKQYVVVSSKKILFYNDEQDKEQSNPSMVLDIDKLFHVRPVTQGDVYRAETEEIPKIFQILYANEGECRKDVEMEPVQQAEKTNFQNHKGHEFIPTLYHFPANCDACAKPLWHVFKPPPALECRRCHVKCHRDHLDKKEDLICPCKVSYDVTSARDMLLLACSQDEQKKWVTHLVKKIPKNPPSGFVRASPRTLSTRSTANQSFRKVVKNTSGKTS", "settings": "ROCK-I(h); 100 μM", "how_it_was_run": "as §1"}, "266 human kinases [3]": {"target": "T2, 266 human kinases (Homo sapiens, UniProt O14920)", "T2 sequence (O14920 1-756)": "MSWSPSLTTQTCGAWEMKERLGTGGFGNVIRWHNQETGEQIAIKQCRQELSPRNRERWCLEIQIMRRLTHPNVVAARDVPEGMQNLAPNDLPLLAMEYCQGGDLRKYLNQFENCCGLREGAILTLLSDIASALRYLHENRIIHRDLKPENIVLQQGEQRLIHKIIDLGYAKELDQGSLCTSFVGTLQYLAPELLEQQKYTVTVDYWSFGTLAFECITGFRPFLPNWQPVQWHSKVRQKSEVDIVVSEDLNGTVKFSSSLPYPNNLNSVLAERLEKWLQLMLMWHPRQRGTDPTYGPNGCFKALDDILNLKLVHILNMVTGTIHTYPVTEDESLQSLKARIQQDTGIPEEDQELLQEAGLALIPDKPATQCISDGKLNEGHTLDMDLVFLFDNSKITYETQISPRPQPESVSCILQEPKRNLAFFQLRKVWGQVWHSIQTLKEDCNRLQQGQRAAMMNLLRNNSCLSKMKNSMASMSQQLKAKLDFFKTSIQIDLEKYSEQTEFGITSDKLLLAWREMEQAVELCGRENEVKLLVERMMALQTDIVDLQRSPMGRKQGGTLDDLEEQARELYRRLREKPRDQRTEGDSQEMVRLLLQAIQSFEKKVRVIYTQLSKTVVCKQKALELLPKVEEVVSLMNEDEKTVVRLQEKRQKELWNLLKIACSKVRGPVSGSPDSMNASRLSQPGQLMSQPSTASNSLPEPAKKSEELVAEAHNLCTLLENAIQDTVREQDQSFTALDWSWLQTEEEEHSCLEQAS", "settings": "IKKβ(h); 100 μM", "how_it_was_run": "as §1"}, "266 human kinases [4]": {"target": "266 human kinases (Homo sapiens, UniProt P07949, V804M)", "settings": "Ret(V804M)(h); 100 μM", "how_it_was_run": "as §1"}, "266 human kinases [5]": {"target": "T3, 266 human kinases (Homo sapiens, UniProt Q8IWQ3)", "T3 sequence (Q8IWQ3 1-736)": "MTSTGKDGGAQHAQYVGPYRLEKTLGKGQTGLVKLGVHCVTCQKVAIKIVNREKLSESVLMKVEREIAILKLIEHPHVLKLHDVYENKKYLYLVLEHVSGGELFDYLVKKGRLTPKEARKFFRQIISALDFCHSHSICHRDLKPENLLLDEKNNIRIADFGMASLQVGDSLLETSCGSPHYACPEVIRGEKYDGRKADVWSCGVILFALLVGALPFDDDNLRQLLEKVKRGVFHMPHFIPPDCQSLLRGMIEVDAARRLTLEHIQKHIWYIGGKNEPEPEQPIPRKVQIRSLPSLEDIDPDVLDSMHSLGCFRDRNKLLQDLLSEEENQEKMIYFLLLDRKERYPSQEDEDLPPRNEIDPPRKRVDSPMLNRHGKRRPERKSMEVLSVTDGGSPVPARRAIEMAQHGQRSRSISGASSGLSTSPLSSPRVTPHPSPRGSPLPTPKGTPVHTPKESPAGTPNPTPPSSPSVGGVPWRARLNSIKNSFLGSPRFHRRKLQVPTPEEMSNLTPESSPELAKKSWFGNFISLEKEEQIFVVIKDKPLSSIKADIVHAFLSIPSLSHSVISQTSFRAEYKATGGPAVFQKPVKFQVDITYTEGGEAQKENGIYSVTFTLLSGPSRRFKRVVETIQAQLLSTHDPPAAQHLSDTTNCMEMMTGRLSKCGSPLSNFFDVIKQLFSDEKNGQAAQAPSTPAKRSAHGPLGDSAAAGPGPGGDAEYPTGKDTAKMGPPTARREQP", "settings": "BrSK2(h); 100 μM", "how_it_was_run": "as §1"}, "266 human kinases [6]": {"target": "266 human kinases (Homo sapiens, UniProt Q9H422)", "sequence (Q9H422 whole entry)": "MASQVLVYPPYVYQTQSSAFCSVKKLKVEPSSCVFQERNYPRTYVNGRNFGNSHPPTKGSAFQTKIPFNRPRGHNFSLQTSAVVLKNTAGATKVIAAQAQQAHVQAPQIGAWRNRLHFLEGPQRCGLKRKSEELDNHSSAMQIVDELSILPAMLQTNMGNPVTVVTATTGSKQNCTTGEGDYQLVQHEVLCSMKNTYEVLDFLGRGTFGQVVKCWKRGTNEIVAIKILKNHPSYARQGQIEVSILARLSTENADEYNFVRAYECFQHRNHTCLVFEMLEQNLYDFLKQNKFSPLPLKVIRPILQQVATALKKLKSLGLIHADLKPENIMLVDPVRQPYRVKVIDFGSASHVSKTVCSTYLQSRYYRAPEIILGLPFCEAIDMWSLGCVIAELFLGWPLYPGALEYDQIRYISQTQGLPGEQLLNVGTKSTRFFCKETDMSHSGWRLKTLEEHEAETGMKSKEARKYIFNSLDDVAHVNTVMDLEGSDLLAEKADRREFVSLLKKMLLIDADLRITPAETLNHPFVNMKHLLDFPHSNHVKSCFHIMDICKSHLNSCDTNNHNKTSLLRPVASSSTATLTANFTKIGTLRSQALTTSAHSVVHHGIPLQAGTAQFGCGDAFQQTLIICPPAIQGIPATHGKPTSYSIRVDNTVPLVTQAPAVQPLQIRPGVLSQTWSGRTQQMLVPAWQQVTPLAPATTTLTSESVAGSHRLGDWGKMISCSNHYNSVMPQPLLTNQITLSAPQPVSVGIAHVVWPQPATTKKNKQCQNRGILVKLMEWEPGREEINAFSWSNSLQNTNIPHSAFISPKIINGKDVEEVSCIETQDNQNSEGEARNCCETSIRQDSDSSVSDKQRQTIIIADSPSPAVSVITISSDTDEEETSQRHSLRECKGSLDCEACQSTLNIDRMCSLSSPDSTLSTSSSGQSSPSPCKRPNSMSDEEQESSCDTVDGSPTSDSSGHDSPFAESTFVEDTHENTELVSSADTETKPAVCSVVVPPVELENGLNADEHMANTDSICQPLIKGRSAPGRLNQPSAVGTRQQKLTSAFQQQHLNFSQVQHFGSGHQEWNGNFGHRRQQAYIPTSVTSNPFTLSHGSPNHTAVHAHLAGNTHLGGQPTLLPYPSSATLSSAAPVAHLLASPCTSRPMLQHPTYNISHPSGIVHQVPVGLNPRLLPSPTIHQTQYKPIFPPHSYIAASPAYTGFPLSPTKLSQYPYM", "settings": "HIPK3(h); 100 μM", "how_it_was_run": "as §1"}, "266 human kinases [7]": {"target": "266 human kinases (Homo sapiens, UniProt P00533, T790M)", "settings": "EGFR(T790M)(h); 100 μM", "how_it_was_run": "as §1"}, "266 human kinases [8]": {"target": "266 human kinases (Homo sapiens, UniProt Q8N4C8)", "sequence (Q8N4C8 whole entry)": "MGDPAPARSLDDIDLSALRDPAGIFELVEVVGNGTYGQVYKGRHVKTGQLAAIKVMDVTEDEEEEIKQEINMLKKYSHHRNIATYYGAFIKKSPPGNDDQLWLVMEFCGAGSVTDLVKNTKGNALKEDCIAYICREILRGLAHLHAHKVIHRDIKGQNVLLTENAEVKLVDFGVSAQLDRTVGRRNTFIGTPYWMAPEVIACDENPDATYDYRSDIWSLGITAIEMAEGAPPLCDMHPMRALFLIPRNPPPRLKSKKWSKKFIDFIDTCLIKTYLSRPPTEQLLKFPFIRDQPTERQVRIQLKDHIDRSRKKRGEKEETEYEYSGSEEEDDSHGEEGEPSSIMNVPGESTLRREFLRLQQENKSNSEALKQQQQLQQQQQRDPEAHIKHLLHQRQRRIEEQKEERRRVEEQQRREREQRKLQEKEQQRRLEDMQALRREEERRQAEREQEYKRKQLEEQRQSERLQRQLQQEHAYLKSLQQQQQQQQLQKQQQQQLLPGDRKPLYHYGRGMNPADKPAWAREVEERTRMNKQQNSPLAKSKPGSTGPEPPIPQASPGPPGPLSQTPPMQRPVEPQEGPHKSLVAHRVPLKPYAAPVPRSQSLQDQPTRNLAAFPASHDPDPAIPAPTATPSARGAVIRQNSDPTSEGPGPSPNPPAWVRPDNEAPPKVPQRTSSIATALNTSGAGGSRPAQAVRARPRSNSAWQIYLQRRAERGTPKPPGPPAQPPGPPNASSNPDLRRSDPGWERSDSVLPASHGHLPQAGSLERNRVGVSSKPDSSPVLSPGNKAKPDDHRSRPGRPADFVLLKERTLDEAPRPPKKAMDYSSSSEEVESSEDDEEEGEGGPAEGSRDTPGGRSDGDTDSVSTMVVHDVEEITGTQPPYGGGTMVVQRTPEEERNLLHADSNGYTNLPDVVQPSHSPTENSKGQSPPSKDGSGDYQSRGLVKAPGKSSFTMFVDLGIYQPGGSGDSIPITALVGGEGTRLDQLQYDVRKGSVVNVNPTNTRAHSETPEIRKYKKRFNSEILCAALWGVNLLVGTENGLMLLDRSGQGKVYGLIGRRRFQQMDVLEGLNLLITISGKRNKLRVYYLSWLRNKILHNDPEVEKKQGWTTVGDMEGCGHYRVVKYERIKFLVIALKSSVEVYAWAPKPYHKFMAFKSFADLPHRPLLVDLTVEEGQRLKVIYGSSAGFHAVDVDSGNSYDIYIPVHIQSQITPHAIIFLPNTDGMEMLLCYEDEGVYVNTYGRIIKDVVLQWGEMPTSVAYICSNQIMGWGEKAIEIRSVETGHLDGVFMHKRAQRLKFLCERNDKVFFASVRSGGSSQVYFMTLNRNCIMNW", "settings": "MINK(h); 100 μM", "how_it_was_run": "as §1"}}}
{"sequence": "HRRIKAWLKKIKALARQLGVAA (mammal) [MMI-0500]", "values": [{"measurement": "% activity", "setting": "266 human kinases [1]", "result": 43, "unit": "%"}, {"measurement": "% activity", "setting": "266 human kinases [2]", "result": 17, "unit": "%"}, {"measurement": "% activity", "setting": "266 human kinases [3]", "result": 71, "unit": "%"}, {"measurement": "% activity", "setting": "266 human kinases [4]", "result": 36, "unit": "%"}, {"measurement": "% activity", "setting": "266 human kinases [5]", "result": 84, "unit": "%"}, {"measurement": "% activity", "setting": "266 human kinases [6]", "result": 85, "unit": "%"}, {"measurement": "% activity", "setting": "266 human kinases [7]", "result": 70, "unit": "%"}, {"measurement": "% activity", "setting": "266 human kinases [8]", "result": 5, "unit": "%"}]}
